Reference: article PMC10719372, “Molecular mechanism of phospholipid transport at the bacterial outer membrane interface” (Nature Communications, 2023)

B1: OmpC (natural protein, E. coli, UniProt P06996 22-367, looked up)
chain: AEVYNKDGNKLDLYGKVDGLHYFSDNKDVDGDQTYMRLGFKGETQVTDQLTGYGQWEYQIQGNSAENENNSWTRVAFAGLKFQDVGSFDYGRNYGVVYDVTSWTDVLPEFGGDTYGSDNFMQQRGNGFATYRNTDFFGLVDGLNFAVQYQGKNGNPSGEGFTSGVTNNGRDALRQNGDGVGGSITYDYEGFGIGGAISSSKRTDAQNTAAYIGNGDRAETYTGGLKYDANNIYLAAQYTQTYNATRVGSLGWANKAQNFEAVAQYQFDFGLRPSLAYLQSKGKNLGRGYDDEDILKYVDVGATYYFNKNMSTYVDYKINLLDDNQFTRDAGINTDNIVALGLVYQF
notes: OmpC, outer membrane porin, E. coli; In the pull-down with MlaA variants some samples may have held OmpC-His (pDSW206ompC-His) in place of untagged OmpC; also called osmoporin OmpC; trimeric OmpC; source: E. coli BL21(λDE3) ΔompF::kan, over-expressed from pDSW206ompC; in DDM-solubilised lysate (pull-down) and purified with its partners (Ni-NTA, SEC)

Key:
[1] = target: the molecule itself; assay: SEC-MALS; SEC-purified disulfide-trapped OmpC3-MlaA^Cys-MlaC^Cys-His at 3 mg/ml, Superdex 200 Increase 10/300 GL, TBS pH 8.0 with 0.025% DDM, protein-conjugate analysis
[2] = target: B1; assay: as above; conditions: both partners purified
[3] = target: B1; assay: cryo-EM structure; disulfide-trapped OmpC3-MlaA^Q205C-MlaC^V171C-His in MSP2N2 nanodiscs with E. coli polar lipids; 2.9 Å overall, density of MlaC limited to 5.0-7.0 Å; conditions: both partners purified

| stoichiometry N [2] | stoichiometry N [3] | Binder | stoichiometry N [1] |
| --- | --- | --- | --- |
| – | – | B1 | 3 |
| ~2 per OmpC trimer | 1 to 3 per OmpC trimer | MlaA^Q205C (of the disulfide-trapped OmpC-MlaA-MlaC complex) (natural protein, E. coli, UniProt P76506 18-251, looked up, engineered MlaA^Q205C-MlaC^V171C disulfide bond, MlaA, OM lipoprotein, E. coli; also called MlaA^Cys) CASSGTDQQGRSDPLEGFNRTMYNFNFNVLDPYIVRPVAVAWRDYVPQPARNGLSNFTGNLEEPAVMVNYFLQGDPYQGMVHFTRFFLNTILGMGGFIDVAGMANPKLQRTEPHRFGSTLGHYGVGYGPYVQLPFYGSFTLRDDGGDMADGFYPVLSWLTWPMSVGKWTLEGIETRAQLLDSDGLLRCSSDPYIMVREAYFQRHDFIANGGELKPQENPNAQAIQDDLKDIDSE | – |
